Measured values reported in US20230043289A1 (AC IMMUNE, published 2023).
Numbering of substitutions follows the chain as printed. Names and notes keep the numbering of the source. Where no end group is shown, it is not given here.

B1: 89F4-A1 (antibody, IgG2a, V domains shown)
VH: EVQLVESGGGLVQPKGSLKLSCAASGFTFNTYAMNWVRQAPGKGLEWVARIRSKSNNYAAYFADSVKDRFTISRDDSQTMLYLQMNNLKSEDTAMYYCVSGGNYVPFAYWGQGTLVTVSA
VL: NIMMTQSPSSLAVSAGEKVTMSCKSSQSVFYSSEQRNYLAWYQQKPGQSPKLLISWASTRESGVPDRFTGSGSGTDFTLTISSVQGEDLAVYYCHQYLSSFTFGSGTKLEIK
notes: Ex.2 hybridoma supernatant; Ex.3 recombinant mIgG2a/kappa
B2: 123E9-A1 (antibody, IgG2a, V domains shown)
VH: EVQLQQSGPELVKPGASVKMSCKASGYTFTDYYMKWVKQSHGKSLEWIGDIDPNNGGTSYNQKFKGKATLTVDKSSSTAYMQLNSLTSEDSAVYYCARSAGFGDSFSFWGLGTLVTVSA
VL: DVLMTQTPLSLPVSLGDQASISCRSSQSIVHSNGNTYLEWYLQKPGQSPKLLIYKVSNRFSGVPDRFSGSGSGTDFTLKISRVEAEDLGFYYCFQGSHVPPTFGGGTKLEIK
notes: as for B1
B3: 19H6-F7 (antibody, IgG2a, V domains shown)
VH: EVQLVESGGDLVKPGGSLKLSCAASGFTFSSYGMSWVRQTPDKRLEWVATISSGGTYTYYPDSVKGRFTISRDNAKNTLYLQMSSLKSEDTAMYYCAPSYDGAMDYWGQGTSVTVSS
VL: B2 VL with F90V, H98L, P101W
notes: as for B1
B4: 3A4-H4 (antibody, IgG2a, V domains shown)
VH: B3 VH with Y95F, P98T
VL: B2 VL with S28N, F90V, S97T, H98L, P101W
notes: as for B1
B5: 54C1-H11 (antibody, IgG2a, V domains shown)
VH: B3 VH with L20V, A23V, S30R, E46D, T56N, P98S, D101S
VL: B2 VL with V2T, L3V, T7S, K55T, F90V, P101W
notes: as for B1
B6: 94B2-C1 (antibody, IgG2a, V domains shown)
VH: EVQLQQSGPELVKPGASMKISCKASGYSLTGYTMNWVKQSHGKNLEWIGLISPYNGVTSYNQKFKGKATLTVDKSSNTAYMELLSLTFEDSAVYYCARQGAYWGQGTLVTVSA
VL: not shown
notes: as for B1
B7: hu37D3-H9.v5 hIgG4.S228P, stressed (t = 2 weeks) (antibody, V domains shown)
VH: EVQLVESGGGLVQPGGSLRLSCAASGLIFRSYGMSWVRQAPGKGLEWVATINSGGTYTYYPDSVKGRFTISRDNSKNTLYLQMNSLRAEDTAVYYCANSYSGAMDYWGQGTLVTVSS
VL: EDVLTQTPLSLPVTPGQPASISCRSSQSIVHSNGNTYFEWYLQKPGQSPQLLIYKVSNRFSGVPDRFSGSGSGTDFTLKISRVEAEDVGVYYCFQGSLVPWTFGQGTKVEIK
modifications: light chain N28 (Kabat) partly deamidated: 43.1% increase after 2 weeks at 40 C in PBS pH 7.4
notes: human IgG4 with S228P, kappa; thermally stressed sample, a mixed population
B8: hu37D3-H9.v93 (antibody, V domains shown)
VH: B7 VH with Y57R
VL: EDLLTQSPSSLSASVGDRVTITCRSSQSIVHSNGNTYLEWYQQKPGKSPKLLIYKVSNRFSGVPSRFSGSGSGTDFTLTISSLQPEDFATYYCFQGTLVPWTFGQGTKVEIK
B9: hu37D3-H9.v76 (antibody, V domains shown)
VH: B7 VH with Y57R
VL: B7 VL with E1D, V3L, F38L, S97T
B10: hu37D3-H9.v83 (antibody, V domains shown)
VH: B7 VH with V5L, Y57R
VL: B7 VL with E1D, V3L, T7S, P15L, F38L, L42Q, K44R, Q50R, S97T

Target: T1, Tau fragment 1-15 (human, UniProt P10636-8 1-15)
T1 construct: range 1-15
T1 peptide (looked up): MAEPRQEFEVMEDHA
Assay: ELISA on Tau 15-mer peptides

Row | Binder | binding result
1 | B1 | no binding
2 | B2 | no binding
3 | B3 | no binding
4 | B4 | no binding
5 | B5 | no binding

Target: T2, Tau fragment 19-33 (human, UniProt P10636-8 19-33)
T2 construct: range 19-33
T2 peptide (looked up): GLGDRKDQGGYTMHQ
Assay: ELISA on Tau 15-mer peptides

Row | Binder | binding result
6 | B1 | no binding
7 | B3 | no binding
8 | B4 | no binding
9 | B5 | no binding

Target: T3, Tau fragment 28-42 (human, UniProt P10636-8 28-42)
T3 construct: range 28-42
T3 peptide (looked up): GYTMHQDQEGDTDAG
Assay: ELISA on Tau 15-mer peptides

Row | Binder | binding result
10 | B6 | no binding
11 | B3 | no binding
12 | B4 | no binding
13 | B5 | no binding

Target: T4, Tau fragment 37-51 (human, UniProt P10636-8 37-51)
T4 construct: range 37-51
T4 peptide (looked up): GDTDAGLKESPLQTP
Assay: ELISA on Tau 15-mer peptides

Row | Binder | binding result
14 | B6 | no binding
15 | B2 | no binding
16 | B3 | no binding
17 | B4 | no binding
18 | B5 | no binding

Target: T5, MAPT(10-24) (human, also: biotinylated (position not given here))
T5 construct: also called Tau fragment 10-24
T5 peptide: VMEDHAGTYGLGDRK
Assay: ELISA on Tau 15-mer peptides

Row | Binder | binding result
19 | B1 | no binding
20 | B2 | no binding

target: T6, Human Tau monomer (recombinant 2N4R isoform, amino acids 2-441) (human, UniProt P10636-8 2-441); assay: SPR, hIgG captured, Tau monomer 3.1-100 nM
T6 construct: range 2-441; also called monomeric human Tau; human monomer Tau protein
T6 sequence (P10636 other isoform, or with tags, fused parts or gaps limits assumed): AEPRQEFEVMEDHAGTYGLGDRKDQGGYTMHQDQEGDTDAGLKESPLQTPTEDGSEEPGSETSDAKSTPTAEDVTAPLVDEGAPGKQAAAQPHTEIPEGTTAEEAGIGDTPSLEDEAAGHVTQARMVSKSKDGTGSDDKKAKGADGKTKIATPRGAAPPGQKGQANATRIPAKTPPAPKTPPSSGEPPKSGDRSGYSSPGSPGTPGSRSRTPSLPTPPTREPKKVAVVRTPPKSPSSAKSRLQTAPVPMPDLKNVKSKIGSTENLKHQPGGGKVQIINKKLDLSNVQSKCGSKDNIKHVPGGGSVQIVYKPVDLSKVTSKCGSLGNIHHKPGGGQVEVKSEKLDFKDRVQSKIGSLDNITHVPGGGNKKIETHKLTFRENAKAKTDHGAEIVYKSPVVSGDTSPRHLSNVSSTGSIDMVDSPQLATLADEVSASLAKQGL
Experimental: To assess the impact of N²⁸ deamidation on the affinity for human Tau, it was desirable to obtain two samples with widely separated N²⁸ deamidation status. Hu37D3-H9.v5 hIgG4.S228P was incubated at 40° C. for two weeks at a concentration of 1 mg/ml in Phosphate Buffered Saline, pH 7.4. Deamidation of the N²⁸G²⁹ motif was measured using LC-MS/MS. […] The stressed and unstressed antibodies were analyzed for Tau binding by surface plasmon resonance (Biacore) using the GE Biacore human IgG capture kit and a Series S CM5 chip. The hIgG were diluted to 2 μg/ml in 10 mM HEPES pH7.4, 150 mM NaCl, 0.05% Tween 20 (running buffer, HBSP) and captured at a flow rate of 10 μl/min for 15 seconds (t0 sample) or 17 seconds (t2 sample). […] Between cycles the surface was regenerated using a 30 second injection of 3M Magnesium Chloride at 10 μl/min. A 1:1 binding model was fitted to the data using instrument defaults, including local fitting of the “RI” parameter.

Row | Binder | Kd [nM]
21 | B7 | 0.7

target: T6, Human Tau monomer (recombinant 2N4R …); assay: SPR 25C, hIgG captured, Tau monomer analyte

Row | Binder | Kd [nM]
22 | B7 | 1.5

target: T6, Human Tau monomer (recombinant 2N4R …); assay: SPR 37C, hIgG captured, Tau monomer 0.1-33.3 nM
Experimental: Affinity for human and cynomolgus monkey Tau was measured at 37° C. using a Biacore T200 instrument, the GE Biacore human IgG capture kit and a Series S CM5 Sensor Chip. Antibodies were diluted to 1 μg/ml in running buffer HBS-EP (10 mM HEPES pH7.4, 150 mM NaCl, 1 mM EDTA, 0.05% Tween 20) and captured at a flow rate of 10 μl/min for 15 seconds. Data was collected for the binding of human and cynomolgus Tau monomer, each of which was injected at 0, 0.1, 0.4, 1.2, 3.7, 11.1, and 33.3 nM, using a flow rate of 30 μl/min, a contact time of 300 s, and a dissociation time of 900 s. Between cycles, the surface was regenerated with 3M magnesium chloride. Data was fit to a 1:1 binding model using BIAEvaluation software.

Row | Binder | Kd [nM] | koff [s⁻¹] | kon [M⁻¹ s⁻¹]
23 | B8 | 0.1 | 0.00102 | 6.89e+06
24 | B9 | 0.1 | 0.000892 | 6.94e+06
25 | B10 | 0.1 | 0.000818 | 6.19e+06
